Square brackets hold non-standard residues; d marks the D form. Ends that are not written are not given here. pT = C[C@@H](OP(=O)(O)O)[C@H](N)C(=O)O
Biological target: T1, HLA-A*02:01 (peptide-receptive MHC class I molecule, heavy chain with β2m light chain) (human)
T1 construct: The UV-sensitive placeholder peptide is cleaved on irradiation and exchanged for the tested peptide
Test: UV-ligand exchange, anti-β2m ELISA; grade of peptide exchange yield (≥10% = +; ≥20% = ++; ≥50 = +++; ≥75% = ++++)
Excerpt: Candidate peptides for T cell based therapies according to the present invention were further tested for their MHC binding capacity (affinity). The individual peptide-MHC complexes were produced by UV-ligand exchange, where a UV-sensitive peptide is cleaved upon UV-irradiation, and exchanged with the peptide of interest as analyzed. Only peptide candidates that can effectively bind and stabilize the peptide-receptive MHC molecules prevent dissociation of the MHC complexes. To determine the yield of the exchange reaction, an ELISA was performed based on the detection of the light chain (β2m) of stabilized MHC complexes. The assay was performed as generally described in Rodenko et al. (Rodenko et al., 2006).
96 well MAXISorp plates (NUNC) were coated over night with 2 ug/ml streptavidin in PBS at room temperature, washed 4× and blocked for 1 h at 37° C. in 2% BSA containing blocking buffer. Refolded HLA-A*02:01/MLA-001 monomers served as standards, covering the range of 15-500 ng/ml. Peptide-MHC monomers of the UV-exchange reaction were diluted 100-fold in blocking buffer. Samples were incubated for 1 h at 37° C., washed four times, incubated with 2 ug/ml HRP conjugated anti-β2m for 1 h at 37° C., washed again and detected with TMB solution that is stopped with […]. Absorption was measured at 450 nm. Candidate peptides that show a high exchange yield (preferably higher than 50%, most preferred higher than 75%) are generally preferred for a generation and production of antibodies or fragments thereof, and/or T cell receptors or fragments thereof, as they show sufficient avidity to the MHC molecules and prevent dissociation of the MHC complexes.

peptide exchange yield | Binder
≥ 75% | SLFSVPFFL [peptide SLFSVPFFL]
20 to 50% | GLSYIYNTV [peptide GLSYIYNTV]
20 to 50% | SLVEGEAVHLA [peptide SLVEGEAVHLA]
≥ 75% | TLLGLAVNV [peptide TLLGLAVNV]
20 to 50% | GLLPTSVSPRV [peptide GLLPTSVSPRV]
50 to 75% | ALEA[pT]QLYL [peptide ALEAUQLYL]
50 to 75% | FLDEEVKLI [peptide FLDEEVKLI]
50 to 75% | GLVATLQSL [peptide GLVATLQSL]
50 to 75% | FMSKLVPAI [peptide FMSKLVPAI]
20 to 50% | KLYEGIPVL [peptide KLYEGIPVL]
50 to 75% | SLAWDVPAA [peptide SLAWDVPAA]
20 to 50% | ALEEQLHQV [peptide ALEEQLHQV]
50 to 75% | SLADAVEKV [peptide SLADAVEKV]
50 to 75% | SLAEPRVSV [peptide SLAEPRVSV]
≥ 75% | GLLGFQAEA [peptide GLLGFQAEA]
≥ 75% | SLLSEIQAL [peptide SLLSEIQAL]
50 to 75% | YILLQSPQL [peptide YILLQSPQL]
50 to 75% | YIDGLESRV [peptide YIDGLESRV]
≥ 75% | FIIPTVATA [peptide FIIPTVATA]
50 to 75% | SLFPSLVVV [peptide SLFPSLVVV]

peptide exchange yield | Binder
≥ 75% | SMMGLLTNL [peptide SMMGLLTNL]
50 to 75% | ALAGSSPQV [peptide ALAGSSPQV]
≥ 75% | GLVQSLTSI [peptide GLVQSLTSI]
≥ 75% | LLM[pT]VAGLKL [peptide LLMUVAGLKL]
20 to 50% | ALNPVIYTV [peptide ALNPVIYTV]
≥ 75% | FLVEHVLTL [peptide FLVEHVLTL]
20 to 50% | ILTELPPGV [peptide ILTELPPGV]
20 to 50% | TIASSIEKA [peptide TIASSIEKA]
20 to 50% | ILFDVVVFL [peptide ILFDVVVFL]
≥ 75% | KLLDMELEM [peptide KLLDMELEM]
50 to 75% | KQLELELEV [peptide KQLELELEV]
50 to 75% | ALTALQNYL [peptide ALTALQNYL]
50 to 75% | FSFPVSVGV [peptide FSFPVSVGV]
50 to 75% | SLLTEPALV [peptide SLLTEPALV]
20 to 50% | FLSSEAANV [peptide FLSSEAANV]
50 to 75% | KMPEHISTV [peptide KMPEHISTV]
20 to 50% | KAFPFYNTV [peptide KAFPFYNTV]
50 to 75% | SLNDQGYLL [peptide SLNDQGYLL]
50 to 75% | GLHSLPPEV [peptide GLHSLPPEV]

Source: patent US20170173132A1 (IMMATICS BIOTECHNOLOGIES, published 2017)
